For experiment [1], the target named is SIH-11. The experiment can be described thus: AUC.
For experiment [2], the target named is mammalian expressed RBD (mRBD) of SARS-CoV-2 spike (SARS-CoV-2), P0DTC2. Kind of experiment: SPR.
Experiment [3] has as its target SIH-13. The experiment can be described thus: AUC.
Experiment [4] deals with SIH-7. Kind of experiment: AUC.

“And” between values parts separate entries of the source, which are not always exact repeats. Identical values can stand only once.

For DKEWILQKIYEIMRLLDELADAEASMRVSDLIYEFMKK (designed binder, modifications not checked) [SIH-11], the stoichiometry N (usually the number of molecules, sites or subunits per partner or assembly) in experiment [1] amounted to 3.2. Besides, the Kd (commonly the constant that tells how readily two partners part at equilibrium) in experiment [2] is 1.3 nM.

On to DKEWILQKIFEIMRLLDELADAEASMRVSDLIYEFMKK (designed binder, modifications not checked) [SIH-13], for which, in experiment [3], the stoichiometry N is 9.5 and 17.7. This molecule gave a Kd in experiment [2] of 1.6 nM.

Turning to DKEWILQKIFEIMRLLDELADAEASMRVSDLIYEFMKK (designed binder, modifications not checked) [SIH-7], the stoichiometry N in experiment [4] was 4.1 and 7.9. Also, the dissociation constant (Kd) in experiment [2] stood at 2.9 nM.

The values are drawn from PMC9512702.
